# Data: article PMC10715038 (Microbiology Spectrum, 2023)
# Molecular target: T1, SARS-CoV-2 WHU01 Spike RBD, monomeric (SARS-CoV-2, UniProt P0DTC2)
# T1 construct: not shown: Fc (human IgG1), C-terminal, cleaved
# Assay: SPR
# Details: both partners purified
binder,measurement,value
"Cattle ACE2-huFc (soluble cattle ACE2 ectodomain, human IgG1 Fc fusion) (Fc fusion) QSTTEEQAKTFLEKFNHEAEDLSYQSSLASWNYNTNITDENVQKMNEARAKWSAFYEEQSRMAKTYSLEEIQNLTLKRQLKALQHSGTSALSAEKSKRLNTILNKMSTIYSTGKVLDPNTQECLALEPGLDDIMENSRDYNRRLWAWEGWRAEVGKQLRPLYEEYVVLENEMARANNYEDYGDYWRGDYEVTGAGDYDYSRDQLMKDVERTFAEIKPLYEQLHAYVRAKLMHTYPSYISPTGCLPAHLLGDMWGRFWTNLYSLTVPFEHKPSIDVTEKMENQSWDAERIFKEAEKFFVSISLPYMTQGFWDNSMLTEPGDGRKVVCHPTAWDLGKGDFRIKMCTKVTMDDFLTAHHEMGHIQYDMAYAAQPYLLRNGANEGFHEAVGEIMSLSAATPHYLKALGLLAPDFHEDNETEINFLLKQALTIVGTLPFTYMLEKWRWMVFKGEIPKQQWMEKWWEMKREIVGVVEPLPHDETYCDPACLFHVAEDYSFIRYYTRTIYQFQFHEALCKTAKHEGALFKCDISNSTEAGQRLLQMLRLGKSEPWTLALENIVGIKTMDVKPLLNYFEPLFTWLKEQNRNSFVGWSTEWTPYSDQSIKVRISLKSALGENAYEWNDNEMYLFQSSVAYAMRKYFSEARNETVLFGEDNVWVSDKKPRISFKFFVTSPNNVSDIIPRTEVENAIRLSRDRINDVFQLDDNSLEFLGIQPTLGPPYEPPVTI",Kd,700 nM
same,koff,0.066 s⁻¹
same,kon,94000 M⁻¹ s⁻¹
